US7022673B2, “Method for increasing the serum half-life of a biologically active molecule” (Chiron Corporation, priority 1998, dated 2006)
No end group written: not given here.

Legend:
[1] = relative to native protein; cited from earlier work
[2] = Serum half-life after intravenous injection into mice; format: in vivo; conditions: for serum half-life: mice, intravenous injection
Method: uPA1-48 was produced in yeast, purified and concentrated into PBS. When produced in yeast, uPA1-48 lacks a fucosylation which is present when the protein is expressed in mammalian cells. The purified protein was injected intravenously into mice. Blood samples were collected at various time points, and the amount of uPA1-48 present in each sample was determined.
Pharmaceutical preparations comprising the conjugates of uPA1-48 and PEG were injected intravenously into mice. Blood samples were collected at various time points, and the amount of conjugate present in the blood was determined for each time point.

[3] = system: MDA MB231 cells (human breast carcinoma); test: Breast carcinoma MDA MB231 subcutaneous tumor growth in NOD/Ltz mice; format: in vivo; conditions: for tumor growth reduced: vs vehicle control at 9 weeks, p=0.05
Method: Thirty NOD/Ltz mice were injected subcutaneously with 2×10^6 MDA MB231 cells (human breast carcinoma) on day 0. The mice were divided into three groups of 10 mice each, and the treatment of the three groups of mice began on day 1. Twice every week, group 1 was subcutaneously injected with 30 μg PEG hu1-48 (20 kD PEG), group 2 was subcutaneously injected with 300 μg PEG hu1-48 (20 kD PEG), and group 3 was subcutaneously injected with the vehicle (PBS). Treatment was continued for 9 weeks. The primary tumor volume (mm^3) was measured three times per week for 12 weeks, and the experiment was terminated when mean tumor volume in vehicle control group exceeded 2000 mm^3.

[4] = system: PC-3 mm2 cells (human prostate carcinoma); test: Human prostate carcinoma PC-3 mm2 orthotopic tumor growth in nude mice; format: in vivo; conditions: 300 μg SC twice per week for 3 weeks, vs vehicle control
Method: The prostates of 18 nude mice were injected with 1×10^5 PC-3 mm2 cells (human prostate carcinoma) on day 0. The mice were divided into two groups of nine mice each, and treatment was initiated on day 3 and continued for 3 weeks. Twice per week, the mice of group 1 received 300 μg PEG hu1-48 (20 kD PEG) by subcutaneous administration, and the mice of group 2 received vehicle only by subcutaneous administration. Three weeks after the implantation of the human prostate carcinoma cells, the prostates of the mice were excised and weighed to determine effects of treatment on the primary tumor growth.

[5] = system: KM12 L4A cells (human colorectal carcinoma cancer with high metastatic potential); test: Liver metastases in post-resection colorectal carcinoma model (KM12 L4A, spleen removed); format: in vivo, mice; conditions: 1000 μg SC twice per week, vs vehicle
Method: Thirty male Nu/Nu mice were injected intrasplenically with 0.5×10^6 KM12 L4A cells (human colorectal carcinoma cancer with high metastatic potential), and the spleens of all the mice were removed 3 days after implantation of the KM12 L4A cells. The mice were divided into two treatment groups, and treatment was began 6 days after implantation. The first group of 15 mice received subcutaneous administrations of 1000 μg PEG hu1-48(20 kD PEG) twice per week, and the second group of 15 mice received saline vehicle only and served as the control group. The experiment was terminated 27 days after implantation of the KM12 L4A cells, and the weight of the livers were determined and histologically scored for metastatic foci.

[6] = system: KM12 L4A cells (human colorectal adenocarcinoma); test: Colon cancer tumor growth and liver metastases, intrasplenic KM12 L4A in nude mice; format: in vivo; conditions: 250 μg BID SC five times per week, 4 weeks
Method: Twenty 10 week old Nude male mice were injected intrasplenically with 1×10^6 KM12 L4A cells (human colorectal adenocarcinoma) on day 0. The mice were divided into two groups, and treatment was initiated on day 1 post-implantation and continued for 4 weeks. Group 1, consisting of 10 mice, were subcutaneously injected five times per week with PEG hu1-48 (20 kD PEG) and 250 μg BID while group 2 mice acted as the control and were injected with vehicle only. The animals were sacrificed all 5 weeks, and the spleens of the animals from each group were weighed to determine primary tumor burden (FIG. 4A). The livers were weighed to determine metastatic tumor burden, and were scored by histological examination for incidence of metastases (FIG. 4B). […] For the purposes of comparison, the average splenic weight for mice in this age group is about 240 mg.

[7] = Pharmacokinetics after single IV bolus or SC dose in cynomologous monkeys (active protein measured by receptor binding activity); format: in vivo; conditions: for t1/2: functional half-life
Method: As above, blood samples were collected at various time points, and the amount of conjugate present in the blood was determined for each time point. The method measures the receptor binding activity instead of just the total protein present; thus the amount of protein measured as a function of time represents the active protein, and the measured half-life represents functional half-life. The data is shown in Table 1, and a graph illustrating plasma disposition of PEG hu1-48 over time is included in FIG. 1.

uPAR = uPAR (Homo sapiens, UniProt Q03405); test: uPAR receptor binding activity (method of Goodson et al.); conditions: for IC50: uPAR receptor binding
uPAR, sequence (Q03405 23-335): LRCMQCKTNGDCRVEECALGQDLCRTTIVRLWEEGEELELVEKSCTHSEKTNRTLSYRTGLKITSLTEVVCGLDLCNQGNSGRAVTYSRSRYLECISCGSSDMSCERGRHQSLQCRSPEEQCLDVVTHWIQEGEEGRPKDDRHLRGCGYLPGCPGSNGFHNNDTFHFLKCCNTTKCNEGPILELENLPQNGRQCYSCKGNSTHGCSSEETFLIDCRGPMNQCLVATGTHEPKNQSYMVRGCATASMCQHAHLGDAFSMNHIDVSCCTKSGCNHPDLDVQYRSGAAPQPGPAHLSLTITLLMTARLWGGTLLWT

**Q.** With “IL-8/PEG20 kD conjugate: literature conjugate of IL-8 with PEG20 kD (Gaertner and Offord 1996)” as the substance, how does the “change in half-life on conjugation to PEG20 kD” value [1] read?
**A.** no change

**Q.** For “PEG20 kD to IL-1ra: literature conjugate of PEG20 kD with IL-1ra (Gaertner and Offord 1996)”, which “change in half-life on conjugation to PEG20 kD” value [1] is on record?
**A.** almost seven-fold increase

**Q.** Which serum half-life [2] does the source give for “uPA1-48 /PEG3.4 kD conjugate: uPA1-48 N-terminal aldehyde coupled to PEG hydrazide of nominal average molecular weight 3.4 kD ({PEG 3.4 kDa hydrazone}-SNELHQVPSNCDCLNGGTCVSNKYFSNIHWCNCPKKFGGQHCEIDKSK; cysteine pairing not given here; UniProt P00749 21-68, looked up, fragment)” here?
**A.** 0.2 h

**Q.** For “uPA1-48/PEG5 kD conjugate: uPA1-48 N-terminal aldehyde coupled to PEG hydrazide of nominal average molecular weight 5 kD ({PEG 5 kDa hydrazone}-SNELHQVPSNCDCLNGGTCVSNKYFSNIHWCNCPKKFGGQHCEIDKSK; cysteine pairing not given here; UniProt P00749 21-68, looked up, fragment)”, which serum half-life [2] is on record?
**A.** 0.733 h

**Q.** What does the source list for “uPA1-48/PEG20 kD conjugate: uPA1-48 N-terminal aldehyde coupled to PEG hydrazide of nominal average molecular weight 20 kD ({PEG 20 kDa hydrazone}-SNELHQVPSNCDCLNGGTCVSNKYFSNIHWCNCPKKFGGQHCEIDKSK; cysteine pairing not given here; UniProt P00749 21-68, looked up, fragment)”?
**A.** tumor growth reduced ([3]; 30 μg SC twice every week): 77%; tumor growth reduced ([3]; 300 μg SC twice every week): 98%; effect after treatment was stopped (day 63) ([3]; 300 μg group observed additional 3 weeks, tumors evident by day 84): cytostatic effect; reduction in primary tumor growth (prostate weight) [4]: ~57%; overall liver tumor burden ([5]; day 27): trend toward a reduction; metastases to the liver ([5]; p value <0.05, day 27): significantly reduced metastases to the liver; serum half-life [2]: 2.17 h; increase in serum half-life ([2]; relative to unmodified uPA1-48, mice): 13 fold; incidence of liver metastases ([6]; 6 control mice had metastases, p<0.005): no observed metastases; mice with visible tumors in the spleen ([6]; of 10 mice): 7 mice; average spleen weight ([6]; ±113, control 641 mg, normal about 240 mg): 269 mg; t1/2 ([7]; monkey F67-344F, IV, 10 mg/kg): 6.9 h; t1/2 ([7]; monkey F67-344F, SC, 10 mg/kg): 23 h; t1/2 ([7]; monkey F7238F, IV, 10 mg/kg): 7.6 h; t1/2 ([7]; monkey F7238F, SC, 10 mg/kg): 26 h; t1/2 ([7]; monkey F7281F, IV, 8.8 mg/kg): 6.4 h; t1/2 ([7]; monkey F7281F, SC, 10 mg/kg): 14 h; AUC ([7]; monkey F67-344F, IV, 10 mg/kg): 3297918 nM·min; CL ([7]; monkey F67-344F, IV, 10 mg/kg): 0.6 mL/min/kg; Cmax ([7]; monkey F67-344F, IV, 10 mg/kg): 19.143 µM; F ([7]; monkey F67-344F, IV, 10 mg/kg): 100%; MRT ([7]; monkey F67-344F, IV, 10 mg/kg): 7.4 h; Tmax ([7]; monkey F67-344F, IV, 10 mg/kg): 0 h; Vss ([7]; monkey F67-344F, IV, 10 mg/kg): 0.252 L/kg; AUC ([7]; monkey F67-344F, SC, 10 mg/kg): 3803604 nM·min; Cmax ([7]; monkey F67-344F, SC, 10 mg/kg): 2.596 µM; F ([7]; monkey F67-344F, SC, 10 mg/kg): 115%; MRT ([7]; monkey F67-344F, SC, 10 mg/kg): 31 h; Tmax ([7]; monkey F67-344F, SC, 10 mg/kg): 8 h; AUC ([7]; monkey F7238F, IV, 10 mg/kg): 3002085 nM·min; CL ([7]; monkey F7238F, IV, 10 mg/kg): 0.6 mL/min/kg; Cmax ([7]; monkey F7238F, IV, 10 mg/kg): 30.564 µM; F ([7]; monkey F7238F, IV, 10 mg/kg): 100%; MRT ([7]; monkey F7238F, IV, 10 mg/kg): 6.6 h; Tmax ([7]; monkey F7238F, IV, 10 mg/kg): 0 h; Vss ([7]; monkey F7238F, IV, 10 mg/kg): 0.249 L/kg; AUC ([7]; monkey F7238F, SC, 10 mg/kg): 3057502 nM·min; Cmax ([7]; monkey F7238F, SC, 10 mg/kg): 2.155 µM; F ([7]; monkey F7238F, SC, 10 mg/kg): 101%; MRT ([7]; monkey F7238F, SC, 10 mg/kg): 28 h; Tmax ([7]; monkey F7238F, SC, 10 mg/kg): 4 h; AUC ([7]; monkey F7281F, IV, 8.8 mg/kg): 1987996 nM·min; CL ([7]; monkey F7281F, IV, 8.8 mg/kg): 0.8 mL/min/kg; Cmax ([7]; monkey F7281F, IV, 8.8 mg/kg): 19.199 µM; F ([7]; monkey F7281F, IV, 8.8 mg/kg): 100%; MRT ([7]; monkey F7281F, IV, 8.8 mg/kg): 5.1 h; Tmax ([7]; monkey F7281F, IV, 8.8 mg/kg): 0 h; Vss ([7]; monkey F7281F, IV, 8.8 mg/kg): 0.255 L/kg; AUC ([7]; monkey F7281F, SC, 10 mg/kg): 2337888 nM·min; Cmax ([7]; monkey F7281F, SC, 10 mg/kg): 1.126 µM; F ([7]; monkey F7281F, SC, 10 mg/kg): 103%; MRT ([7]; monkey F7281F, SC, 10 mg/kg): 31 h; Tmax ([7]; monkey F7281F, SC, 10 mg/kg): 8 h; decrease in biological activity (uPAR; relative to uPA1-48, uPAR binding): four-fold; IC50 (uPAR): 1000 pM

**Q.** Which serum half-life [2] does the source give for “uPA1-48/PEG25 kD conjugate: uPA1-48 N-terminal aldehyde coupled to PEG hydrazide of nominal average molecular weight 25 kD ({PEG 25 kDa hydrazone}-SNELHQVPSNCDCLNGGTCVSNKYFSNIHWCNCPKKFGGQHCEIDKSK; cysteine pairing not given here; UniProt P00749 21-68, looked up, fragment)” here?
**A.** 4.62 h

**Q.** Which serum half-life [2] does the source give for “uPA1-48/PEG50 kD dimeric conjugate: a uPA1-48 molecule conjugated at each end of PEG50 kD (SNELHQVPSNCDCLNGGTCVSNKYFSNIHWCNCPKKFGGQHCEIDKSK; cysteine pairing not given here; also: dimer: one uPA1-48 conjugated at each end of PEG 50 kDa, site not given here; UniProt P00749 21-68, looked up, fragment)” here?
**A.** 4.8 h

**Q.** Which serum half-life [2] does the source give for “uPA1-48: catalytically inactive protein comprising the first 48 amino acids of human uPA (EGF-like domain), produced in yeast (SNELHQVPSNCDCLNGGTCVSNKYFSNIHWCNCPKKFGGQHCEIDKSK; UniProt P00749 21-68, looked up, fragment)” here?
**A.** approximately 10 minutes

**Q.** And the IC50 (uPAR)?
**A.** 250 pM
